In article PMC13469128:

Key:
CD47 (Mus musculus) = CD47 (Mus musculus) (UniProt Q61735); conditions: cited from earlier work
CD47 (Homo sapiens) = CD47 (Homo sapiens) (UniProt Q08722); conditions: cited from earlier work
[1] = molecular target: human CD47 on cells (human (endogenous in HCT116, MDA-MB-468, OVCAR3, HUVEC, C5120)) (UniProt Q08722)

Sequence of SIRPα-Fc (P78324 31-373): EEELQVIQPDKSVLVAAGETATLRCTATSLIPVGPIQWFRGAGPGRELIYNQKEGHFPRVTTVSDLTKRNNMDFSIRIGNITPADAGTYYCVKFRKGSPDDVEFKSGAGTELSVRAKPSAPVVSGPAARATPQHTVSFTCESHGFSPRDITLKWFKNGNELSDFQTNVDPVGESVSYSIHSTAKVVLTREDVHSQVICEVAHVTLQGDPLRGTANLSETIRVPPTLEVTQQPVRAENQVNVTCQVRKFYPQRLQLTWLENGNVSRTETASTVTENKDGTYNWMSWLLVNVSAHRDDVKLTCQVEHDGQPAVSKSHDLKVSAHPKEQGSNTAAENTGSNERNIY
Sequence of UniProt Q61735 (Q61735 19-303): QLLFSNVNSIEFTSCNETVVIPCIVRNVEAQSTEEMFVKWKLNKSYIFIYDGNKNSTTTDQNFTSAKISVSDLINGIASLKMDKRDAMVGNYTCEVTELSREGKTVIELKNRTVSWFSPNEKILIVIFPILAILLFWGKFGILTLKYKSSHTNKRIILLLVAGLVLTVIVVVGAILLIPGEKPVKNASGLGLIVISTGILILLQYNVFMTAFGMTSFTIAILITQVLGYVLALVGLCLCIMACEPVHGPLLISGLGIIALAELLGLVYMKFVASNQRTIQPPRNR

Row | macrophage ADCP on-chip of MDA-MB-468 cells, fold increase over the background; AdV delivery of SIRPα-Fc alone (blocks the CD47-SIRPα axis) [1] [fold] | Substance | Kd (CD47 (Mus musculus)) [nM] | Kd (CD47 (Homo sapiens)) [nM]
1 | – | SIRPα-Fc (from UniProt P78324) | 58 | 1
2 | 1.7 | SIRPα-Fc fusion protein | – | –
